Reference: the nanobody polyreactivity screen of Harvey et al. (2022)

Test: yeast display, Sf9 membrane polyspecificity reagent, FACS + sequencing; frameworks hold sequencing errors
Outline: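 Galactose induction of a Saccharomyces cerevisiae BJ5465 synthetic nanobody display library ran 36–48 hours. The cells were then stained for 1 hour at 4 °C with 10% biotinylated, detergent-solubilized Sf9 membrane reagent, pulled down on streptavidin microbeads and FACS-sorted into low and high (top ~1%) gates on expression and reagent-binding fluorescence. Labels for polyreactivity follow the gate of origin.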

## QVQLVESGGGLVQAGGSLRLTSAGSGSTFSYYTMGWYRQAPGKERELVATIRSTGSTTYADSVKGRFTISRDNVKNTVYLQMNSLKPEDTAVYFCAARSRWGGYIHTGYDYWGQGTQVTVSS
  polyreactivity (PSR sort gate): low polyreactivity

## QVQLVESGGGLVQAGGSLRLTWAATGSIFRTNAMGSYRPAPGKERELVAAITGSGGSTYYADSVKGRFTISRYNAKNTVYLQMNCLKPEETAVYYCAAEFGSFVSPYNYYYWGQGTQVTVSS
  polyreactivity (PSR sort gate): low polyreactivity

## QVQLVESGGGLVQAGGSLRSSCAASGSLFTSNTMGWHRQAPGKERELVAAITSSGGSMFYADSVKGRFTISRDNAKNTVYLQMNSLKPEDNAVYYCAADTIGYHDWYDYWGQGTQVTVSS
  polyreactivity (PSR sort gate): low polyreactivity

## QVQLVESGGGLVQAGGSLRVSCAASGFIFGDYAMGWYRQAPGKERELVAAINRGASTYYADSVKGRFTISRDNAKNTVYLQMNSLKPEDTAVYYCAAAGYSRGGRGGYWGQGTHVTVSS
  polyreactivity (PSR sort gate): high polyreactivity

## QVQLVESGGGLVQAGGSLRVSCAASGFIFPGNAMGWYRQAPGKERELVAAISNSGSRTYYADSVKGRFTISRDNAKNTVYLQMNSLKPEDTAVYYCNADVHNRGWPYDYWGQGTQVTVSS
  polyreactivity (PSR sort gate): low polyreactivity

## QVQLVESGGGLVQAGGSLRVSCAASGFIFYGYTMGWYREAPGKERELVARISRRGGSTYYADSVKGRFTISRDNAKNTVYLQMNSLKPEDTAVYYCATRALGHFDWGQGTQVTVSS
  polyreactivity (PSR sort gate): low polyreactivity

## QVQLVESGGGLVQAGGSLRVSCAASGFTFSDYAMGWYRQAPGKESELVAGISSGGSTNYADSVKGLFTISRDNAKNTVYLQMNSLKPDDTAVYYCAADLYATWSYFFTWLDYWGQGTQVTVSS
  polyreactivity (PSR sort gate): high polyreactivity

## QVQLVESGGGLVQAGGSLRVSCAASGGIFGLYTMGWYRQAPGTERELVAGISKRGTRTRYADSVKGRFTISRDNAKNTVYLQMNSLKPDDTAVYYCNADYYVSKLDDWGQGTQVTVSS
  polyreactivity (PSR sort gate): high polyreactivity

## QVQLVESGGGLVQAGGSLRVSCAASGGILRGYAMGWYRQARGKEWELVAAISRGGRTNYADSVKGRFTISRDNAKNTVYLQMNSLKPEDTAVYYCAKRYARGENDYWGQGTQVTVSS
  polyreactivity (PSR sort gate): high polyreactivity

## QVQLVESGGGLVQAGGSLRVSCAASGIIFDGNAMGWYRQAPGKERELVAAITASGGSTHYADSVKGRFTISRDNAKNTVYLQMNSLKPEDTAVYYCNKRSRTTGDYDYWGQGTHVTVSS
  polyreactivity (PSR sort gate): low polyreactivity

## QVQLVESGGGLVQAGGSLRVSCAASGIIFGSYPMGWYRQAPGTERELVATISFSGGTTNYADSVKGRFPISRDNATTPVYLQMNSLTPEDTAVYYCAARPAPATGKLDYWGQGTQETVSS
  polyreactivity (PSR sort gate): low polyreactivity

## QVQLVESGGGLVQAGGSLRVSCAASGITFAYYAMGWYRHAPGKDRELVAAITRRGSSTYYADSVKGRFTISRDNAKNTVYLQMNSLKPEATAVYYCAAVAYGRERYDYWGPGTQVTVSS
  polyreactivity (PSR sort gate): high polyreactivity

## QVQLVESGGGLVQAGGSLRVSCAASGLILAYYDMGWYRQAPGKERELVASITGSGGDTYYADSVKGRFTISRDNAKNTVYLQMNSLKPEDTAVYYCAAEYRNVYWIFGVDYWGQGTQVTVSS
  polyreactivity (PSR sort gate): low polyreactivity

## QVQLVESGGGLVQAGGSLRVSCAASGNTFYYTMGWYLQAPGKERELVATISYDGTSTYYADSVKGRFTISRDNAKNTVYLQKNSLKPEDTAVYYSSAYGTVVTLNDYWGQGTQVTVSS
  polyreactivity (PSR sort gate): low polyreactivity

## QVQLVESGGGLVQAGGSLRVSCAASGRIFPFYAMGWYRQAAGKERELVAAISWNGGSTFYADSVKGRFTSSRDNANNTVYLQMHRLKPEDNAVYYCNADFRPAYTYDYWGQGTQVTVSS
  polyreactivity (PSR sort gate): low polyreactivity

## QVQLVESGGGLVQAGGSLRVSCAASGRIFYPYAMGWYRQAPGKERELVAAIRRSGVDTYYADSVKGRFTISRDNAKNTVYLQMNSLKPEDTAVYYCDADPYWFFPHYDSWGQGTQVTVSS
  polyreactivity (PSR sort gate): low polyreactivity

## QVQLVESGGGLVQAGGSLRVSCAASGRIVWPNTMGWSRQAPGKERELVAAISWSGGSTYYADSVKGRFTISRDNAKNTVYLHRNSLKPEHTAVYSCAKRPPHYSWPKIIDFGSWGQGTQVTVSS
  polyreactivity (PSR sort gate): high polyreactivity

## QVQLVESGGGLVQAGGSLRVSCAASGSIFDSNAMGWYRQAPGKERELVASITSSGGSTYYADSVKGRFTISRDNAKNTVYLQMNSLKPEDTAVYYCAKRAWTGYGYYYWGQGTQVTVSS
  polyreactivity (PSR sort gate): high polyreactivity

## QVQLVESGGGLVQAGGSLRVSCAASGSTFPPSAMGWYREAPGKERELGAAIDWSDGTTYYADSVKGRFTISRDYAKNTVYLQMNSLKPEDTAVYYCAADPVLDEYDYWGQGTQVTVSS
  polyreactivity (PSR sort gate): low polyreactivity

## QVQLVESGGGLVQAGGSLRVSCAASGSTFVYYAMGWYRQAPGKERELVAAITASGGGTYYADSVKGRFTISRDNAKNTVYLQMNSLKPEDTAVYYCNRGYDYWGQGTQVTVSS
  polyreactivity (PSR sort gate): low polyreactivity

## QVQLVESGGGLVQAGGSLRVSCAASGSTFYEYAMGWYRQAPGKERELVAAITRGGTTYYADSVKGRFTISRDNAKNTDYYQMNSLKPEDTAVYYCAARTRGFTKLGYWGQGTQVTVSS
  polyreactivity (PSR sort gate): high polyreactivity

## QVQLVESGGGLVQAGGSLRVSCAASGTTFPRNAMGWYRQAPGKERELVATITSAGGGTYYADSVKGRFTISRDNAKNSVYLQMNSLKPEDTAVYYCNADGPAGDAFDSWGQGTQVTVSS
  polyreactivity (PSR sort gate): low polyreactivity

## QVQLVESGGGLVQAGGSLRVSCAASGYTFDLYAMGWYRQAPGKERELVADISSGGSTNYADSVKGRFTISRDNAKNTVYLQMNSLKPEDTAVYYCAVDADRTLFGQYYVSEYGGGYWGQGTQVTVSS
  polyreactivity (PSR sort gate): low polyreactivity

## QVQLVESGGGLVQAGGSLSFSCAASGNTFYRNAMGWYSQAPGKERELVAAITFSTVRTYYADSVKGRFTISRDNAKNTVYLQMNSLKPEDTAVYYCNKLYRGTWAKENGYWGQGTQVTVSS
  polyreactivity (PSR sort gate): high polyreactivity

## QVQLVESGGGLVQAGGSLSISCAASGRTFYAYAMGWYRQAPGTERELVASIDKSGGSTYYADSVKGRFTISRRIRRYRLFTDEQPETGRYRCLLLRCWCVVLSDFQFWGDFDYDYWGQGTQVTVSS
  polyreactivity (PSR sort gate): low polyreactivity

## QVQLVESGGGLVQAGGSLSISCASSGRNFGANAMGLYRQAPGKERELVAVITGGGGTYYADSVKGRFTISRDNAKNTVYLQMNSLKPEDTAVYYCDWPRYYYTYPSHPMDYWGQGTQVTVSS
  polyreactivity (PSR sort gate): low polyreactivity

## QVQLVESGGGLVQAGGSLSLICAASGNTFPPYAMGWYRQAPGKERELVAAISCGGRTYYADSVKGRFTISRDNAKNTVYLQMNSLTPEDTAVYYCAVYVPNYYSYHYDYWGQGTQVTVSS
  polyreactivity (PSR sort gate): high polyreactivity

## QVQLVESGGGLVQAGGSLSLICAASGSIFAPNAMGLYRQAPGKERELDATITKRGGNTYYADSVKGRFTISRDNAINTVYLKMNSLKPEDSAVFYCNDSPYSRWSSYGYDYWGQGTQVTVSS
  polyreactivity (PSR sort gate): low polyreactivity

## QVQLVESGGGLVQAGGSLSLICAASGSTFNLYPMGGYRKAPGKERELVAAISRGGSTNYADSVKGRFTISRDNAKNTVYLQMNSLIPEDTAVYYCAARSWYDRYPYYSWGQGTQLTVSS
  polyreactivity (PSR sort gate): high polyreactivity

## QVQLVESGGGLVQAGGSLSLICAASGTTFYYYAMGWYRQAPGKERELVAANTLRGTSTYYADSVKGRFTISRDNAKNTVDLQMNRLKPEDTAVYYCAVETYYSIFDIYDYWGQGTQVTVSS
  polyreactivity (PSR sort gate): low polyreactivity

## QVQLVESGGGLVQAGGSLSLICDASGRTFTRYVMGWYRHAPGKERELVAAISSSGGTYYADSVKGRFTISRDNAKNTVYLQMNSLKPEDTAVYYCAVGSKLSRSYGYYYWGQGTQVTVSS
  polyreactivity (PSR sort gate): high polyreactivity

## QVQLVESGGGLVQAGGSLSLRCAASGGTFAPYAMGWYRQAPGTERELDAAISWSGGSTYYADSVKGLFTISRDNAKISVYLQMNSLKPEDTAVYYCAGRLTRGIYSTYYYWGQGTQGTVSS
  polyreactivity (PSR sort gate): high polyreactivity
